Laboratory results published in US20150086555A1.
Like-named read-outs stand apart in the source and are kept apart here.

B1: TCN-504 (3251_K17) (antibody, V domains shown)
VH: QVQLQESGPGLVKPSETLSLTCAVSGVSISNIDFYWGWIRQPPGKGLEWIGNIYYTGITFYNPSLSSRVAISIDTSKNQFSLTLTSVTAADTAMYYCARHYGDSEAINDAFDIWGQGTMLTVSS
VL: EIVMTQSPATLSVSPGERATLSCRASQSVGNSLAWYQQRPGQAPRLLIYGASTRATGIPPRFSGSGSGTEFTLTISSLQTEDFAVYYCQQYINWRPLSFGGGTKVEIK
B2: TCN-563 (5237_B21) (antibody, V domains shown)
VH: QVQLAQSGAEVKRPGSSVKVSCTASGGIFRKNAISWVRQAPGQGLEWMGGIIAVFNTANYAQKFQGRVKITADESGNTAYMELSSLRSDDTAVYYCASHPKYFYGSGSYPDFWGQGTLVTVSS
VL: QSALTQPRSVSGSPGQSVTISCTGSSSDVGASNSVSWYQQHPGKAPKLVIYDVTERPSGVPHRFSGSKSGNTASLTVSGLQPEDEADYFCCAYGGKYLVVFGGGTKVTVL

Key:
Details in all cases: remark: other sources report otherwise
[1] = target: recombinant soluble homotrimeric HA of A/Anhui/1/05 (H5N1) (Influenza A virus A/Anhui/1/2005(H5N1)); assay: HA microarray, control antibody
[2] = target: T1, recombinant soluble homotrimeric HA of A/Indonesia/5/05 (H5N1) (Influenza A virus A/Indonesia/5/2005(H5N1)); assay: HA microarray, control antibody
[3] = target: T2, recombinant soluble homotrimeric HA of A/Japan/305/57 (H2N2) (Influenza A virus A/Japan/305/1957(H2N2)); assay: HA microarray, control antibody
[4] = target: T3, recombinant soluble homotrimeric HA of A/Vietnam/1203/04 (H5N1) (Influenza A virus A/VietNam/1203/2004(H5N1)); assay: HA microarray, control antibody
[5] = target: recombinant soluble homotrimeric HA of A/California/4/09 (H1N1) (Influenza A virus A/California/04/2009(H1N1)); assay: HA microarray, control antibody
[6] = target: recombinant soluble homotrimeric HA of A/swine/Ontario/01911-2/99 (H4N6) (Influenza A virus A/Swine/Ontario/01911-2/99 (H4N6)); assay: HA microarray, control antibody
[7] = target: recombinant soluble homotrimeric HA of A/Solomon Islands/3/06 (H1N1) (Influenza A virus A/Solomon Islands/3/2006(H1N1)); assay: HA microarray, control antibody
[8] = target: T4, recombinant soluble homotrimeric HA of A/Wisconsin/67/05 (H3N2) (Influenza A virus A/Wisconsin/67/2005(H3N2)); assay: HA microarray, control antibody
[9] = target: recombinant soluble homotrimeric HA of A/Egypt/3300-NAMRU3/08 (H5N1) (Influenza A virus A/Egypt/3300-NAMRU3/2008(H5N1)); assay: HA microarray, control antibody
[10] = target: recombinant soluble homotrimeric HA of A/duck/Yangzhou/02/05 (H8N4) (Influenza A virus A/duck/Yangzhou/02/2005(H8N4)); assay: HA microarray, control antibody
[11] = target: T5, recombinant soluble homotrimeric HA of A/chicken/Vietnam/NCVD-016/08 (H5N1) (Influenza A virus A/chicken/Vietnam/NCVD-016/2008(H5N1)); assay: HA microarray, control antibody
[12] = target: recombinant soluble homotrimeric HA of A/Netherlands/219/03 (H7N7) (Influenza A virus A/Netherlands/219/03(H7N7)); assay: HA microarray, control antibody
[13] = target: T1, recombinant soluble homotrimeric HA of …
[14] = target: T2, recombinant soluble homotrimeric HA of …
[15] = target: T3, recombinant soluble homotrimeric HA of …
[16] = target: T4, recombinant soluble homotrimeric HA of …
[17] = target: T5, recombinant soluble homotrimeric HA of …

Binder	Trimeric HA Binding: RLU [1] [RLU]	Trimeric HA Binding: RLU [2] [RLU]	Trimeric HA Binding: RLU [3] [RLU]	Trimeric HA Binding: RLU [4] [RLU]	Trimeric HA Binding: RLU [5] [RLU]	Trimeric HA Binding: RLU [6] [RLU]	Trimeric HA Binding: RLU [7] [RLU]	Trimeric HA Binding: RLU [8] [RLU]	Trimeric HA Binding: RLU [9] [RLU]	Trimeric HA Binding: RLU [10] [RLU]	Trimeric HA Binding: RLU [11] [RLU]	Trimeric HA Binding: RLU [12] [RLU]	Trimeric HA Binding: RLU [13] [RLU]	Trimeric HA Binding: RLU [14] [RLU]	Trimeric HA Binding: RLU [15] [RLU]	Trimeric HA Binding: RLU [16] [RLU]	Trimeric HA Binding: RLU [17] [RLU]
B1	26200	43300	4090	196	3330	14700	24100	40500	44400	14100	38500	47200	–	–	–	–	–
B2	–	–	–	–	–	–	–	–	–	–	–	–	23200	12400	27700	314	8580
